# B1: purified FrlR UTRA-domain (domain or fragment)
# chain: QKVENALLTVSGFTDFGVSQGKATKEKVIEQERVSAAPFCEKLNIPGNSEVFHLCRVMYLDKEPLFIDSSWIPLSRYPDFDEIYVEGSSTYQLFQERFDTRVVSDKKTIDIFAATRPQAKWLKCELGEPLFRISKIAFDQNDKPVHVSELFCRANRITLTIDNKRH
# Molecular target: the molecule itself
# Assay: SEC
protein,measurement,value
B1,stoichiometry N,2

# — doi:10.1101/2020.01.13.904318 (bioRxiv, 2020)
